# Assay results as given in patent US20170275350A1 (Scripps Research, published 2017).
# T1: Protease activated receptor-1 (PAR1), endogenous on EA.hy.926 endothelial cells (human, UniProt P25116 42-425)
# T1 sequence: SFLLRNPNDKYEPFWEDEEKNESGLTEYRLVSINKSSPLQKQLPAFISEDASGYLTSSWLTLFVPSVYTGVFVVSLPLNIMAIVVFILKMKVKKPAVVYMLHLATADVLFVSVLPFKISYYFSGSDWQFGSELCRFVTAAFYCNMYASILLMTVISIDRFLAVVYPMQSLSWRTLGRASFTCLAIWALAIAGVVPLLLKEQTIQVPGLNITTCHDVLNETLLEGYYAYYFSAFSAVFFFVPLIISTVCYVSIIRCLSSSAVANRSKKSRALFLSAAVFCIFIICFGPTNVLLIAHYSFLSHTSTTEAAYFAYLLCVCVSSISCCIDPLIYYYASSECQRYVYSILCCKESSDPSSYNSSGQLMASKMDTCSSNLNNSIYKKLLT
# B1: TFLL peptide (TR42-51 with S42T) (peptide)
# peptide: TFLLRNPNDK
# B2: PAR1 peptide TR47-66 (peptide)
# peptide: NPNDKYEPFWEDEEKNESGL
# Legend:
# [1] = target: Protease activated receptor-1 (PAR1), endogenous on EA.hy.926 endothelial cells (human) (UniProt P25116); assay: cell-based or functional assay
# [2] = system: Synthetic PAR1 N-terminal peptide TR33-62
# [3] = target: T1, Protease activated receptor-1 (PAR1), …; assay: cell-based or functional assay
# Synthetic PAR1 N-terminal peptide TR33-62, sequence (chain, as listed by the source): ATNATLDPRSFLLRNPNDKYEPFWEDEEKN
Molecule,"cleavage of the peptide (reverse phase HPLC, MALDI-TOF of fragments) [2]","ERK1/2 phosphorylation in EA.hy.926 cells (immunoblot, ratio to total ERK1/2) [3] [fold]",other results
Activated Protein C (from UniProt P04070 43-461) (enzyme),–,–,"ERK1/2 phosphorylation in EA.hy.926 cells (immunoblot, ratio to total ERK1/2) [1]: 1.5 fold; decrease of ATAP2 signal relative to WEDE15, on cell Western [1]: 50%"
Activated Protein C,APC cleaves this PAR1 peptide at Arg^46 as well as at Arg^41,–,–
Thrombin,"the two fragments produced by thrombin (peaks A and D) corresponded to masses of 1,001 and 2,670 for cleavage at Arg^41",–,–
B1,–,3,–
B2,–,1.5,–
